In publication PMC3986616, “Identification and functional characterization of a flax UDP-glycosyltransferase glucosylating secoisolariciresinol (SECO) into secoisolariciresinol monoglucoside (SMG) and diglucoside (SDG)” (BMC Plant Biology, 2014) one finds Km and kcat data, which are given here for one protein.

Substrate in data set [1]: COc1cc(C[C@@H](CO)[C@H](CO)Cc2ccc(O)c(OC)c2)ccc1O
The experiment in a line: UPLC-MS glucosylation assay, SDG formation, Lineweaver-Burk. As to conditions: SDG production (sequential glucosylation via SMG), 1.67 mM UDP-glucose fixed, pH 8.0, 30°C, 1 mM NaCl, 80 μg protein. Format: biochemical, Linum usitatissimum.

Substrate in data set [2]: O=c1ccn([C@@H]2O[C@H](CO[P@@](=O)(O)O[P@@](=O)(O)O[C@H]3O[C@H](CO)[C@@H](O)[C@H](O)[C@H]3O)[C@@H](O)[C@H]2O)c(=O)[nH]1
The data set is described as above. Format: biochemical, Linum usitatissimum. As to conditions: SDG production, 280 μM SECO fixed, pH 8.0, 30°C, 1 mM NaCl, 80 μg protein.

B1: UGT74S1 (Linum usitatissimum) (protein)
chain: MAGDEREKAHCLVVPAAAQGHFTPLLQFSKRLIPKRIRVTLALTRFIHSTMTVTAQSGIHIDTISDGFDHSGLILQDPEHYSQTFRRVGSETLTDLIRKQSESRHPVHCIIYDASMPWFLDVAKRFGIVGAAFLTQSCAVNAIYYHLREGTIKRPVVSDPAAGTLVIDGLPPLEVSDLPSFIWDDLHTEFLAAHLRQFSNDGADWVFCNTVYQLELEAVDWLTKQWLINFRTIGPTIPSFYLDKQIPDDKDYDISIFNPQNQTCMNWLQSKPDGSVVYVSFGSLARLSPQQTEELYFGLKNSNHYFLWVVRESEVAKLPKEEYLSGEKGLVVSWCSQLQVLASGKVGCFVTHCGWNSTLEALSLGVPMVAMPECGDQLTNAKFIKDVWKTGVRAEADDGKGIMWGMIKREVIERCIREVMEGEETRRNADKWGKIIKEAVVEGGSSDKNTEDFATSLINFAETFQFSC
A word on the Km: it is the concentration of substrate that gives half-maximal velocity. The kcat is the maximal rate divided by the concentration of active sites. Regarding B1, the Km in data set [1] was 79 µM; in data set [2], 1188 µM. Further, the kcat in data set [1] came out at 0.89 s⁻¹.
